From patent US20230330254A1 (Regeneron, published 2023)
Read-outs that look alike come from different tables or passages of the source.

T1: full-length human glucagon-like peptide 2 receptor on HEK293/CRE-Luc/hGLP2R cells (human, UniProt O95838 1-553)
T1 sequence (looked up): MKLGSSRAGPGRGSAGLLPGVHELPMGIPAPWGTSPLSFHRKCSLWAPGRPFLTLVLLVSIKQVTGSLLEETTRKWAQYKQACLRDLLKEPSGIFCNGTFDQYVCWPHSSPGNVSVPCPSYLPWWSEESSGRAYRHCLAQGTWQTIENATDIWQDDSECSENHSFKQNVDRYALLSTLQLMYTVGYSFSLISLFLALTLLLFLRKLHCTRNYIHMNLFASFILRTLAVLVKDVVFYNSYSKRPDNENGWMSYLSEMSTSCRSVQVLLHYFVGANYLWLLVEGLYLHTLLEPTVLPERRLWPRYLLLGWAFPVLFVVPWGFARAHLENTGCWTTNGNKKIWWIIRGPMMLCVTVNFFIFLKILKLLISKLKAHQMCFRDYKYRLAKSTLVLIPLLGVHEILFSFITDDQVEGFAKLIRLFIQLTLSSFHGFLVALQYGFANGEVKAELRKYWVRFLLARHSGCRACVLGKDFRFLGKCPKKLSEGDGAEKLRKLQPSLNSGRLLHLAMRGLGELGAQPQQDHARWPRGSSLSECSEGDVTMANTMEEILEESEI

T2: full-length human gastric inhibitory polypeptide receptor on HEK293/CRE-Luc/hGIPR cells (human, UniProt P48546 22-466)
T2 sequence (looked up): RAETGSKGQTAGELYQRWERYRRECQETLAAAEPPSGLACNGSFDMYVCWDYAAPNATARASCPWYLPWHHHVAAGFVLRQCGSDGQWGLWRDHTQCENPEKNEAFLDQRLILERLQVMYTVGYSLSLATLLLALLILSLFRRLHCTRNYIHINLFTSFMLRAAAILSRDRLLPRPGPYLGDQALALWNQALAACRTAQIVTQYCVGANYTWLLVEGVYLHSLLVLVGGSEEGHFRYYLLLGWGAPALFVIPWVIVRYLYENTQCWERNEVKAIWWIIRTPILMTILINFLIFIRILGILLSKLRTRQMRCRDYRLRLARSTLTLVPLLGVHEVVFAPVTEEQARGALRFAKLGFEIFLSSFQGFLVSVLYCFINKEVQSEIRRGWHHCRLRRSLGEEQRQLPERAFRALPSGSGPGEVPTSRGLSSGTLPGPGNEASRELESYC

T3: full-length mouse GLP1R on HEK293/CRE-Luc/mGLP1R cells (mouse, UniProt O35659 22-463)
T3 construct: whole, on cells
T3 sequence (looked up): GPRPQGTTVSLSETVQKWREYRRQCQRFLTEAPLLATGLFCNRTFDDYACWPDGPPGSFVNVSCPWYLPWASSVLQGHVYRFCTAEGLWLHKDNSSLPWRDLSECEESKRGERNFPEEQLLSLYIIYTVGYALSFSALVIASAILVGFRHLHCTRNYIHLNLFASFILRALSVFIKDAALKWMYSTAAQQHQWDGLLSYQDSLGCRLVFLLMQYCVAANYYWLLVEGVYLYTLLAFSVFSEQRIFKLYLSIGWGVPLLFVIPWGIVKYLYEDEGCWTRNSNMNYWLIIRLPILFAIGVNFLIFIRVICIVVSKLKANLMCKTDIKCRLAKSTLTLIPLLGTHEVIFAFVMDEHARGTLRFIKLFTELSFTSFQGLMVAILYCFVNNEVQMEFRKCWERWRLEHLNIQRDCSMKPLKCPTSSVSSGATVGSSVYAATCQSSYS


Legend:
[1] = biological target: T4, full-length human GLP1R on HEK293/CRE-Luc/hGLP1R cells (human, UniProt P43220 24-463); test: cell-based or functional assay
[2] = biological target: T4, full-length human GLP1R on …; test: cell-based or functional assay; remark: listed apart in the source
[3] = biological target: T5, full-length cynomolgus GLP1R on HEK293/CRE-Luc/mfGLP1R cells (cynomolgus, UniProt F8V479 24-463); test: cell-based or functional assay
[4] = biological target: T1, full-length human glucagon-like peptide …; test: cell-based or functional assay
[5] = biological target: T6, full-length human glucagon receptor on HEK293/CRE-Luc/hGCGR cells (human, UniProt P47871 26-477); test: cell-based or functional assay
[6] = biological target: T2, full-length human gastric inhibitory …; test: cell-based or functional assay
[7] = biological target: T4, full-length human GLP1R on …; test: cell-based or functional assay; remark: listed apart in the source
[8] = biological target: T5, full-length cynomolgus GLP1R on …; test: cell-based or functional assay; remark: listed apart in the source
[9] = biological target: T1, full-length human glucagon-like peptide …; test: cell-based or functional assay; remark: listed apart in the source
[10] = biological target: T6, full-length human glucagon receptor on …; test: cell-based or functional assay; remark: listed apart in the source
[11] = biological target: T2, full-length human gastric inhibitory …; test: cell-based or functional assay; remark: listed apart in the source
[12] = biological target: human GLP1R on PathHunter eXpress GLP1R CHO-K1 b-Arrestin GPCR cells (human, UniProt P43220 24-463); test: cell-based or functional assay
[13] = biological target: T4, full-length human GLP1R on …; test: cell-based or functional assay; remark: listed apart in the source
[14] = biological target: T4, full-length human GLP1R on …; test: flow cytometry, hGLP1R cells
[15] = biological target: T4, full-length human GLP1R on …; test: flow cytometry, hGLP1R cells; remark: listed apart in the source
[16] = biological target: T3, full-length mouse GLP1R on …; test: flow cytometry, mGLP1R cells
[17] = biological target: T5, full-length cynomolgus GLP1R on …; test: flow cytometry, mfGLP1R cells
[18] = biological target: T5, full-length cynomolgus GLP1R on …; test: flow cytometry, mfGLP1R cells; remark: listed apart in the source
[19] = biological target: T7, N-terminal ectodomain of human GLP1R expressed with a myc-myc hexahistidine tag (human, UniProt P43220 24-145, limits assumed); test: SPR, captured via anti-hFc, 25 C
T7 construct: extracellular domain; also called hGLP1R-MMH; hGLP1R.mmh

[20] = biological target: T4, full-length human GLP1R on …; test: cell-based or functional assay; remark: listed apart in the source
[21] = biological target: Myc-tagged full length human GLP1R on HEK293/Myc-hGLP1R/Cre-Luc cells (human, UniProt P43220 24-463); test: cell-based or functional assay
[22] = biological target: T4, full-length human GLP1R on …; test: cell-based or functional assay; remark: listed apart in the source

T6 sequence (P47871 26-477): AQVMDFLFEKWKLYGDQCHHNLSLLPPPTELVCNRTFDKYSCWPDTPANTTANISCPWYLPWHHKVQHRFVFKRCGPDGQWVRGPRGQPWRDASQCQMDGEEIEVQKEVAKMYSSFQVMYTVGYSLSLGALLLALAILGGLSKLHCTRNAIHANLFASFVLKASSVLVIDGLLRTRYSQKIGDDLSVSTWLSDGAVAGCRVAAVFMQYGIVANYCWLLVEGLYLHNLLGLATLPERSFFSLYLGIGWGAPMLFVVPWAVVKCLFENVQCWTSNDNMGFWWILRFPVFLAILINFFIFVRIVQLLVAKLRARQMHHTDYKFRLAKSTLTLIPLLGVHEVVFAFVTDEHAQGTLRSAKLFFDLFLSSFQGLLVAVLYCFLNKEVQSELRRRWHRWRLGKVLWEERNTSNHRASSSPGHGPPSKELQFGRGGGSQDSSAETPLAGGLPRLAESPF
T7 sequence (P43220 24-145 limits assumed): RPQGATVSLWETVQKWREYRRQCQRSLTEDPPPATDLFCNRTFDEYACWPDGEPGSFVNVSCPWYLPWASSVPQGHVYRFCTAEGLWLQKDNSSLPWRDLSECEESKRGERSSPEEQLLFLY

| Binder | CRE-luc EC50 [1] [pM] | CRE-luc Relative Potency (% M2361 EC50) [1] [%] | CRE-luc Relative Signal:Noise (% M2361) [1] [%] | CRE-luc S/N [1] [fold] | CRE-luc EC50 [2] [pM] | CRE-luc EC50 [3] [pM] | CRE-luc EC50 [4] [pM] | CRE-luc EC50 [5] [pM] | CRE-luc EC50 [6] [pM] | CRE-luc EC50 [7] [pM] | CRE-luc EC50 [8] [pM] | CRE-luc EC50 [9] [pM] | CRE-luc EC50 [10] [pM] | CRE-luc EC50 [11] [pM] | b-arrestin 2 recruitment EC50 [12] [pM] | b-arrestin 2 recruitment Emax (% GLP-1) [12] [%] | CRE-luc EC50 [13] [pM] | CRE-luc Emax (% GLP-1) [13] [%] | further results |
| --- | --- | --- | --- | --- | --- | --- | --- | --- | --- | --- | --- | --- | --- | --- | --- | --- | --- | --- | --- |
| REGN7990-M3190 (antibody, human IgG4 S228P, kappa, V domains shown, linker-payload M3190 (LP11) on Gln 3 of the N-terminal Q-tag LLQGSG, antibody-tethered drug conjugate; also called REGN7990 ATDC; anti-GLP1R mAb3-LP11) VH: not shown VL: DIQMTQSPSSVSASVGDRVTITCRASQGINSWLAWYQQKPGKAPKLLIYAASSLQSGVPSRFSGSGSGTDFTLTISSLQPEDFATYYCHQADSFPYTFGQGTKLEIKR | 60.1 | 27 | 135 | 86.9 | 72.4 | 77.2 | > 200000 | > 200000 | > 200000 | 63.7 | 257 | > 30000 | > 30000 | > 30000 | 17200 | 103 | 236 | 90.9 | EC50 [14]: 9810 pM; Flow S/N [14]: 117 fold; EC50 [15]: 30500 pM; Flow S/N [15]: 231 fold; EC50 [16]: 91500 pM; Flow S/N [16]: 29.3 fold; EC50 [17]: 4790 pM; Flow S/N [17]: 103 fold; EC50 [18]: 29900 pM; Flow S/N [18]: 486 fold; 90 nM hGLP1R.mmh Bound (RU) [19]: 22.8 RU; Kd [19]: 2010 pM; koff [19]: 0.000785 s⁻¹; kon [19]: 390000 M⁻¹ s⁻¹; t1/2 [19]: 14.7 min |
| XXGTXTSDXX (CapAib-E*-G-T-F*-T-S-D-AA2-AA1: CapAib = 3-((2-(1H-imidazol-5-yl)ethyl)amino)-2,2-dimethyl-3-oxopropanoic acid; E* = (S)-2-amino-3-(2H-tetrazol-5-yl)propanoic acid; F* = (S)-2-amino-3-(2-fluorophenyl)-2-methylpropanoic acid; AA2 = biphenylalanine derivative carrying the amino-PEG8-triazole linker; AA1 = (S)-2-amino-5-(3,5-dimethylphenyl)pentanamide) [GLP1R agonist linker-payload LP11 (NH2-PEG8-triazole-P8)] | 36.9 | 44 | 96.4 | 62 | 25.8 | 46.3 | > 200000 | > 200000 | > 200000 | 60.1 | 202 | > 30000 | > 30000 | > 30000 | 2480 | 108 | 16.8 | 93.9 | cAMP EC50 [20]: 318 pM; CRE-luc EC50 [21]: 16 pM; CRE-luc EC50 (experiment A) [22]: 16.1 pM; CRE-luc Relative Potency (% P8 EC50) (experiment A) [22]: 33.1%; CRE-luc S/N (experiment A) [22]: 74.5 fold |
